Test results as given in patent publication US5683983.

Molecular target: extracellular domain (ECD) of the IL-5 receptor α chain (IL-5R α) (human) (UniProt Q01344)
Assay: grade under 'Affinity'; IC50 values of 500 nm or less; competition with [125I] IL-5 for IL-5Rα ECD (Example 3), assay not given

IC50 [nM] | Binder
< 500 | DGYVCVEWARCPMCT [D G Y V C V E W A R C P M C T (SEQ ID NO:8)]
< 500 | DGFVCVEWARCPNCR [D G F V C V E W A R C P N C R (SEQ ID NO:9)]
< 500 | DGYVCVEWARCPTCK [D G Y V C V E W A R C P T C K (SEQ ID NO:7)]
